Laboratory results: US20220186225, “COMPOUNDS FOR DETECTING AND TREATING MYCOPLASMA HYOPNEUMONIAE” (AEROVIRUS TECHNOLOGIES INC., published 2022)

T1: P97 cilium adhesin peptidic complex (F2P97 / R1-containing section, SELEX target) (Mycoplasma hyopneumoniae)
T1 chain: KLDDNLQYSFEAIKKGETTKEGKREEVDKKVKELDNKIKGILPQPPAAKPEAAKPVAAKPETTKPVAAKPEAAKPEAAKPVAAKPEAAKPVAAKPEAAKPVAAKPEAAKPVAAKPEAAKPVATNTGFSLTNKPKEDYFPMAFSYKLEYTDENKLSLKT

B1: APT3Histo1 (ssDNA)
DNA: GCCTGTTGTGAGCCTCCTAACCGCACGTGGGTATTCTAAGTGCGGTAGCTCAATGGTGAGCGATGAGCATCATGCTTATTCTTGTCTCCC
B2: APT3Cooc3 (ssDNA)
DNA: GCCTGTTGTGAGCCTCCTAACTAGCTCGTAGAAAAAAAATATAGCGTGTGCTGGGACTGCTCGGGATTGCGGACACATGCTTATTCTTGTCTCCC

Molecular target: T1, P97 cilium adhesin peptidic complex …
Assay: ELISA; reverse screening on streptavidin plate, 37 C
Details: tags: His tag (Ni-NTA captured); label: biotin in reverse screening
Experimental: Reverse Screening of Aptamer—Selected ssDNA molecules from each individual clone were biotinylated using the B-T3 which is same sequence with 5′ primer (T3 primer), and Klenow fragment (2 unit/ml). To prepare single stranded biotin conjugated APT3Cooc10 aptamer for the reverse screening. T3 Primer was Biotin labelled. A 96-well flat bottom ELISA plate was prepared by coating each well with 100 μl of streptavidin (100 μg/ml) diluted in 0.1 M NaHCO₃ following by a 37° C. overnight incubation. Following several washings with PBS, wells were blocked with 200 μl of PBS containing 1% BSA for 2 hours at room temperature and subsequent washing three times with PBS-T (10 mM PBS containing 0.05% (v/v) Tween-20). Thereafter, 100 μl of 2.5 pmole/100 μl biotinylated-ssDNA were added to the wells and incubated at 37° C. for 2 hours followed by washing four times with PBS-T. T3 primer was used as negative control. Following washing, 100 μl of fluid containing 2 μg histidine labelled P97 peptidic complex were added to the indicated wells and incubated at 37° C. for 2 hours. […]
Enzyme-Linked Immunosorbent Assay (ELISA)—The ELISA tests were carried-out following all the guidelines provided with the DAKO kit. Reaction was terminated with 100 μl of 0.5M H₂SO₄, and the plates were read with a multichannel spectrophotometer at 450 nm.

Binder | binding result
B1 | binds
B2 | binds
